Measurements from US20260085338A1.

Tests used:
[1] = molecular target: phi15 RNA polymerase (Pseudomonas phage phi15); assay: cell-based or functional assay
[2] = molecular target: P. putida RNA polymerase (Pseudomonas putida); assay: cell-based or functional assay

Substance	leaky expression (msfGFP; P. putida, 5 mM Rha) (nM 5(6)-FAM/OD600) [1]	fold induction (FITC-A of +RNAP,-lys against -RNAP,+lys), P. aeruginosa [1] [fold]	fold induction (FITC-A of +RNAP,-lys against -RNAP,+lys), P. putida [1] [fold]	induced (%) cells with FITC-A above 10^4, P. aeruginosa, -RNAP +lys [1] [%]	induced (%) cells with FITC-A above 10^4, P. putida, -RNAP +lys [1] [%]	median FITC-A, flow cytometry, P. aeruginosa, -RNAP +lys (5 mM Rha) [1] [FITC-A]	median FITC-A, flow cytometry, P. putida, -RNAP +lys (5 mM Rha) [1] [FITC-A]	further results
Pf-10 lysozyme (enzyme)	–	–	–	–	–	–	–	decrease in msfGFP output (leakiness of the phi15 RNAP; P. putida, 4 mM Rha) [1]: 84%
Phi15 GP16 RNA polymerase inhibitor	–	–	–	–	–	–	–	cell growth (OD600) of P. putida after induction with 10 mM Rha [2]: 1.4 OD600
phi15 lysozyme (AA1-9>Pf-10 (AA1-10)) (enzyme)	23	–	–	–	–	–	–	–
phi15 lysozyme (G3R) (enzyme)	57	–	–	–	–	–	–	–
phi15 lysozyme (G3RQ) (enzyme)	11	130	9.64	5.94	66.7	527	12700	leaky expression from the phi15 RNAP (msfGFP; P. aeruginosa, 5 mM rhamnose) (5(6)-FAM/OD600) [1]: 29; leaky expression from the phi15 RNAP against the wild-type phi15 lysozyme (P. aeruginosa, 5 mM rhamnose) [1]: 13 fold lower
phi15 lysozyme (wild-type) (enzyme)	122	7.36	4.1	77.5	80	33400	17800	leaky fluorescence with lysozyme induced (P. putida, 4 mM Rha) (nM 5(6)-FAM/OD600) [1]: 77
